Molecular target: HLA-A2 on T2 cells
Assay: T2 HLA-stabilization assay, HLA-A2 level by flow cytometry
Conditions: remark: other sources report otherwise

- mean fluorescence intensity (mean fluorescence intensity): 682
B1: GP2 peptide from HER2/neu (peptide)
peptide: IISAVVGIL

Source: patent publication US20080260745A1
